Assay results: US20230203178A1 (SICHUAN KELUN BIOTECH BIOPHARMACEUTICAL, published 2023)

T1: BCMA expressed on target cells (CHO-K1-BCMA recombinant cell line; MM.1S; RPMI8226) (human, UniProt Q02223 1-184)
T1 sequence (looked up): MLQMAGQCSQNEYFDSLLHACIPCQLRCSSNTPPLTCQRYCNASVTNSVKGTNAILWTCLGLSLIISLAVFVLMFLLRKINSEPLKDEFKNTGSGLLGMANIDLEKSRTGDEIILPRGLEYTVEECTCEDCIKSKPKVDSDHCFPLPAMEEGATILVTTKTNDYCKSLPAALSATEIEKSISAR

T2: human BCMA (antigen) (human, UniProt Q02223 1-54, limits assumed)
T2 construct: Antigen coupled to the CM5 chip in SPR; also called B-cell maturation antigen; TNFRF17
T2 sequence (looked up): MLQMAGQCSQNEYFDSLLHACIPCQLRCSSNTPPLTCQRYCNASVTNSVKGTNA

T3: human CD19 (antigen) (human, UniProt P15391 20-291, limits assumed)
T3 sequence (looked up): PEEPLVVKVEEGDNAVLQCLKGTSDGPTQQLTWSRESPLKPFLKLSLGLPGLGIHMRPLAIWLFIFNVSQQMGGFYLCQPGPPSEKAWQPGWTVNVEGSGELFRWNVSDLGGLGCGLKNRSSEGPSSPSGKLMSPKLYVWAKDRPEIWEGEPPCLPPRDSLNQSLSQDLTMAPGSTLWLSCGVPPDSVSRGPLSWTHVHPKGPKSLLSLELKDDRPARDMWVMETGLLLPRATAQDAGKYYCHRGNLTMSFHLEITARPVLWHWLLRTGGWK

T4: CD19 expressed on Nalm6 cells (UniProt P15391 20-556, limits assumed)
T4 sequence (looked up): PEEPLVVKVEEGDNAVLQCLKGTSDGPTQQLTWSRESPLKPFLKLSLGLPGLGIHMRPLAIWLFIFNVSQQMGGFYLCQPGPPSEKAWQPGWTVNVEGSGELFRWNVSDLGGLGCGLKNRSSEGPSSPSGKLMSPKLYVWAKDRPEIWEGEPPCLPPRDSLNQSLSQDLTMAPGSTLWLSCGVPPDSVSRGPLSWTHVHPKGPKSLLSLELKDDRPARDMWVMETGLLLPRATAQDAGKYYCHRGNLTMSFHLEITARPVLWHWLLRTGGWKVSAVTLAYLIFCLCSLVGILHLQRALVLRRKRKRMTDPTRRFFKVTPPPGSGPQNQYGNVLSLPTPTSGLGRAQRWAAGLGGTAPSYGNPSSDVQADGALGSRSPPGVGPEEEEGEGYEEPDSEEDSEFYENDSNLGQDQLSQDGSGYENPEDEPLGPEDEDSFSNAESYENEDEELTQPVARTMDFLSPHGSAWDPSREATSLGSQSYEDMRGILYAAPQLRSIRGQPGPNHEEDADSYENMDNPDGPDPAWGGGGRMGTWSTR

B1: TanCAR 02 (other)
chain: DIVMTQSPLSLPVTPGEPASISCRSSQSLVHSNGNTFLHWYLQKPGQSPQLLIYKVSNRFSGVPDRFSGSGSGTDFTLKISRVEAEDVGVYYCMQSTHVLTFGGGTKLEIKRAGGGGSGGGGSGGGGSQVQLVQSGAEVKKPGASVKVSCKASGYTFTDYLMHWVRQAPGQGLEWMGWINTETGEPTYADDFKGRVTMTRDTSTSTVYMELSSLRSEDTAVYYCAPSLYYGYSWFTYWGQGTLVTVSEAAAKEAAAKEAAAKQVTLRESGPALVKPTQTLTLTCTFSGVSLPDYGVSWIRQPPGKALEWLAVIWGSETTYYNSALKSRLTISKDTSKNQVVLTMTNMDPVDTATYYCAKHYYYGGSYAMDYWGQGTTVTVSSGGGGSGGGGSGGGGSEIVLTQSPATLSLSPGERATLSCRASQDISKYLNWYQQKPGQAPRLLIYHTSRLHSGIPDRFSGSGSGTDFTLTISRLEPEDIAVYYCQQGNTLPYTFGQGTKLEITTTPAPRPPTPAPTIASQPLSLRPEACRPAAGGAVHTRGLDFACDIYIWAPLAGTCGVLLLSLVITLYCKRGRKKLLYIFKQPFMRPVQTTQEEDGCSCRFPEEEEGGCELRVKFSRSADAPAYKQGQNQLYNELNLGRREEYDVLDKRRGRDPEMGGKPRRKNPQEGLYNELQKDKMAEAYSEIGMKGERRRGKGHDGLYQGLSTATKDTYDALHMQALPPR
notes: Tandem bispecific chimeric antigen receptor on human T cells; built here from its parts without the signal peptide; also called TanCAR 02 CAR-T
B2: humanized anti-CD19 antibody (H-CD19) (antibody, V domains shown)
VH: QVTLRESGPALVKPTQTLTLTCTFSGVSLPDYGVSWIRQPPGKALEWLAVIWGSETTYYNSALKSRLTISKDTSKNQVVLTMTNMDPVDTATYYCAKHYYYGGSYAMDYWGQGTTVTVSS
VL: EIVLTQSPATLSLSPGERATLSCRASQDISKYLNWYQQKPGQAPRLLIYHTSRLHSGIPDRFSGSGSGTDFTLTISRLEPEDIAVYYCQQGNTLPYTFGQGTKLEI
notes: also called humanized monoclonal antibody

Key:
[1] = molecular target: T1, BCMA expressed on target cells …; experiment: cell-based or functional assay
human BCMA (antigen) = molecular target: T2, human BCMA (antigen); experiment: flow cytometry of lentivirus-transduced T cells labelled with antigen, 48 h after transduction; percent positive cells
Description: (§1) The nucleic acid sequence encoding the CAR was expressed under the drive of a promoter, therefore the lentivirus-transfected T cells could be labeled with an antigen or anti-CD19 antibody and measured by flow cytometry, to reflect the expression level of the CAR on the surface of the T cells.

human CD19 (antigen) [2] = molecular target: T3, human CD19 (antigen); experiment: flow cytometry of lentivirus-transduced T cells labelled with antigen or anti-CD19 antibody, 48 h after transduction; percent positive cells
Description: as §1

[3] = molecular target: T4, CD19 expressed on Nalm6 cells; experiment: cell-based or functional assay
human CD19 (antigen) [4] = molecular target: T3, human CD19 (antigen); experiment: affinity determination, method not stated; humanized monoclonal antibody

| Binder | lysis rate of CHO-K1-BCMA-luc cells by CAR-T cells, ratio 0.25:1 [1] [%] | lysis rate of CHO-K1-BCMA-luc cells by CAR-T cells, ratio 0.5:1 [1] [%] | lysis rate of CHO-K1-BCMA-luc cells by CAR-T cells, ratio 1:1 [1] [%] | lysis rate of CHO-K1-BCMA-luc cells by CAR-T cells, ratio 2:1 [1] [%] | Positive rate of binding to BCMA (human BCMA (antigen)) [%] | Positive rate of binding to CD19 (human CD19 (antigen) [2]) [%] | lysis rate of Nalm6-luc cells by CAR-T cells, ratio 0.25:1 [3] [%] | lysis rate of Nalm6-luc cells by CAR-T cells, ratio 0.5:1 [3] [%] | lysis rate of Nalm6-luc cells by CAR-T cells, ratio 1:1 [3] [%] | lysis rate of Nalm6-luc cells by CAR-T cells, ratio 2:1 [3] [%] | Kd (human CD19 (antigen) [4]) [nM] |
| --- | --- | --- | --- | --- | --- | --- | --- | --- | --- | --- | --- |
| B1 | 24 | 35.9 | 60.7 | 59 | 14.1 | 12.7 | 26.1 | 49.8 | 70.1 | 82.4 | – |
| B2 | – | – | – | – | – | – | – | – | – | – | 28.4 |
